Test [1] addresses KAT1 K+ channel of Arabidopsis, myc-tagged (Arabidopsis) (UniProt Q39128).
Test [2] has the same target. This is another data set of the same source.

Consider two substances from article PMC6220998.

Chain of UniProt Q39128 (Q39128 whole entry): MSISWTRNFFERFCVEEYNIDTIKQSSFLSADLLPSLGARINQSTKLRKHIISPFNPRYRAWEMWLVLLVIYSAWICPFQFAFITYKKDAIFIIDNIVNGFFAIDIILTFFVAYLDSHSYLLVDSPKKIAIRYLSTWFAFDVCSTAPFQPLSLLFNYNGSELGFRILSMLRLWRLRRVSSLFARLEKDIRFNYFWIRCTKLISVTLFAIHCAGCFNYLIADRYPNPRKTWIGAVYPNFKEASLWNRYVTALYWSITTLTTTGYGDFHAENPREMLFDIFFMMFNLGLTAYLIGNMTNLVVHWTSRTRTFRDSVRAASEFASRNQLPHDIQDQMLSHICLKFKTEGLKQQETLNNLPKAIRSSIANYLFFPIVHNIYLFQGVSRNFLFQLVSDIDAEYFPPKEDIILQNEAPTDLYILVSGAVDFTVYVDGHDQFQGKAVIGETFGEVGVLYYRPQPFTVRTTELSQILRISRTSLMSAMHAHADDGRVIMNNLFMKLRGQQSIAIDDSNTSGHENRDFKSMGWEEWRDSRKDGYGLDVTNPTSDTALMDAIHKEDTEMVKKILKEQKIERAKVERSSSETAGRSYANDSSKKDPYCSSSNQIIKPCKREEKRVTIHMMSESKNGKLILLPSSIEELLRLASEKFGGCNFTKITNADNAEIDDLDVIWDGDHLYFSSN

Turning to “SYP121^ΔC, soluble cytosolic domain, recombinant (domain or fragment)”, the single-channel open probability Po of KAT1 at −120 mV after adding 1 μM SYP121^ΔC to inside-out patches in test [1] amounted to 3.4%. The substance “SYP121^ΔC, cytosolic SNARE domain, expressed in oocytes (domain or fragment)” gave an amount of SYP121^ΔC in the oocyte that gives a near-maximal effect on KAT1 gating (roughly 0.4 ng per oocyte) in test [2] of 0.14 µM.
